These results are taken from patent US20120316071A1.

Assay [1] concerns the target rHuman P-Cadherin/Fc Chimera, CF (human) (UniProt P22223). The assay is described as follows: ECL Multispot (MSD) assay; antigen spotted on plate, Fab in solution.
For assay [2], the target named is human Delta-like ligand 4 (DLL4), full-length, expressed on CHO cells (human) (UniProt Q9NR61). Description: cell-based or functional assay.
The target in assay [3] is human DLL4, full-length, expressed on the surface of CHO cells (human) (UniProt Q9NR61). Description: cell-based or functional assay.
The target of assay [4] is rHuman P-Cadherin/Fc Chimera, CF (R&D Systems Cat#861-PC) (human) (UniProt P22223). The assay is described as follows: ECL multispot (MSD) binding assay, antigens spotted on plate, 20 nM Fab.
Assay [5] deals with rHuman Notch-1/Fc Chimera, CF (R&D Systems Cat#3647-TK) (human) (UniProt P46531). The description is as above.
For assay [6], the target named is rHuman Erythropoietin R/Fc Chimera, CF (R&D Systems Cat#963-ER) (human) (UniProt P19235). The description is as above.
Assay [7] deals with rHuman HGF R/c-MET/Fc Chimera, CF (R&D Systems Cat#358-MT/CF) (human) (UniProt P08581). The assay is described as follows: ECL Multispot (MSD), antigen spotted, Fab.
Assay [8] deals with Recombinant Human DLL4 (R&D Systems Cat#1506-D4/CF) (human) (UniProt Q9NR61). The assay is described as follows: ECL Multispot (MSD), antigen spotted, Fab.
In assay [9] the target is rHuman IGF-1 sR, CF (R&D Systems Cat#391-GR) (human) (UniProt P08069). The assay is described as follows: ECL Multispot (MSD), antigen spotted, Fab.
Assay [10] addresses rHuman Notch-1/Fc Chimera, CF (R&D Systems Cat#3647-TK) (human) (UniProt P46531). The assay is described as follows: ECL Multispot (MSD), antigen spotted, Fab.
Assay [11] concerns the target rHuman HGF R/c-MET/Fc Chimera, CF (R&D Systems Cat#358-MT/CF) (human) (UniProt P08581). Description: ECL multispot (MSD), antigen spotted, Fab in solution.
Assay [12] has as its target Recombinant Human DLL4 (R&D Systems Cat#1506-D4/CF) (human) (UniProt Q9NR61). The assay is described as above.
Assay [13] concerns the target rHuman Erythropoietin R/Fc Chimera, CF (R&D Systems Cat#963-ER) (human) (UniProt P19235). Described as above.
The target in assay [14] is rHuman P-Cadherin/Fc Chimera, CF (R&D Systems Cat#861-PC) (human) (UniProt P22223). The description is as above.
The target in assay [15] is rHuman IGF-1 sR, CF (R&D Systems Cat#391-GR) (human) (UniProt P08069). The description is as above.
The target of assay [16] is rHuman Notch-1/Fc Chimera, CF (R&D Systems Cat#3647-TK) (human) (UniProt P46531). Described as above.
Assay [17] addresses rHuman CD44/Fc Chimera, CF (R&D Systems Cat#3660-CD) (human) (UniProt P16070). The assay is described as above.
Assay [18] has as its target rHuman HGF R/c-MET/Fc Chimera, CF (R&D Systems Cat#358-MT/CF) (human) (UniProt P08581). The assay is described as follows: ECL multispot (MSD) binding assay, antigen spotted on plate, Fab 0.04 uM.
The target in assay [19] is rHuman IGF-1 sR, CF (R&D Systems Cat#391-GR) (human) (UniProt P08069). The assay is described as above.
Assay [20] deals with rHuman Notch-1/Fc Chimera, CF (R&D Systems Cat#3647-TK) (human) (UniProt P46531). The description is as above.
Assay [21] has as its target rHuman Erythropoietin R/Fc Chimera, CF (R&D Systems Cat#963-ER) (human) (UniProt P19235). Described as above.
The target of assay [22] is rHuman CD44/Fc Chimera, CF (R&D Systems Cat#3660-CD) (human) (UniProt P16070). The description is as above.
For assay [23], the target named is rHuman IGF-1 sR, (IGF-1 sR), CF (R&D Systems Cat#391-GR) (human) (UniProt P08069). The assay is described as follows: MSD Multispot ECL, antigen spotted on plate, Fab in solution; blank spot of the row 240.
The target in assay [24] is rHuman ErbB2/Fc Chimera, CF (R&D Systems Cat#1129-ER) (human) (UniProt P04626). The assay is described as above.
In assay [25] the target is rHuman CD44/Fc Chimera, CF (R&D Systems Cat#3660-CD) (human) (UniProt P16070). Described as above.

In the case of “Fab VH1-46_IGHD6-6*01_IGHJ1*01 S102A/S103P/S104F/H111F (APFF) & L6_IGKJ1*01 S28Q”, the ECL signal in assay [1] worked out at 809.

Take “Fab VH1-46_IGHD6-6*01_IGHJ1*01 S102A/S103P/S104F/H111F (APFF) & L6_IGKJ1*01 S28T”: the ECL signal in assay [1] turned out to be 676.

Take “Fab VH1-46_IGHD6-6*01_IGHJ1*01 S102A/S103P/S104F/H111F I51V/N52L/S54T/G56H & L6_IGKJ1*01 S28N/S30D/S31H S52L/A55S”: in [2], the Notch1 luciferase reporter luminescence, T98G reporter cells + CHO-DLL4, 0.8 nM Fab, replicate 1 is 4740; the Notch1 luciferase reporter luminescence, T98G reporter cells + CHO-DLL4, 0.8 nM Fab, replicate 2 was determined as 4890; the Notch1 luciferase reporter luminescence, T98G reporter cells + CHO-DLL4, 0.8 nM Fab, replicate 3 was determined as 3820; the Notch1 luciferase reporter luminescence, T98G reporter cells + CHO-DLL4, 0.8 nM Fab, replicate 4 is 4080. Besides, in assay [2], the Notch1 luciferase reporter luminescence, T98G reporter cells + CHO-DLL4, 4 nM Fab, replicate 1 came out at 4840; the Notch1 luciferase reporter luminescence, T98G reporter cells + CHO-DLL4, 4 nM Fab, replicate 2 stood at 4880; the Notch1 luciferase reporter luminescence, T98G reporter cells + CHO-DLL4, 4 nM Fab, replicate 3 is 4250; the Notch1 luciferase reporter luminescence, T98G reporter cells + CHO-DLL4, 4 nM Fab, replicate 4 was 4670. In assay [2], the Notch1 luciferase reporter luminescence, T98G reporter cells + CHO-DLL4, 20 nM Fab, replicate 1 turned out to be 4380; the Notch1 luciferase reporter luminescence, T98G reporter cells + CHO-DLL4, 20 nM Fab, replicate 2 is 4480; the Notch1 luciferase reporter luminescence, T98G reporter cells + CHO-DLL4, 20 nM Fab, replicate 3 was found to be 3960; the Notch1 luciferase reporter luminescence, T98G reporter cells + CHO-DLL4, 20 nM Fab, replicate 4 came to 3990.

Turning to “Fab VH1-46_IGHD6-6*01_IGHJ1*01 S102A/S103P/S104F/H111F I51V/N52L/S54T/G56H (APFF VLTH) & L6_IGKJ1*01 S28N/S30D/S31H S52L/A55S (NDH LS)”, in [3], the Notch1 luciferase reporter luminescence, T98G reporter cells + CHO-DLL4, 100 nM Fab, replicate 1 was 2400; the Notch1 luciferase reporter luminescence, T98G reporter cells + CHO-DLL4, 100 nM Fab, replicate 2 was 2280; the Notch1 luciferase reporter luminescence, T98G reporter cells + CHO-DLL4, 100 nM Fab, replicate 3 stood at 2150; the Notch1 luciferase reporter luminescence, T98G reporter cells + CHO-DLL4, 100 nM Fab, replicate 4 was determined as 2170.

Regarding “Fab VH3-23_IGHD2-21*01>3_IGHJ6*01 H100E/S108P/Y113G Y109G & V2-13_IGLJ2*01”, in assay [4], the ECL multispot signal (ratio to blank; column not labelled) was determined as 2.7.

With “Fab VH3-23_IGHD2-21*01>3_IGHJ6*01 H100E/S108P/Y113G Y110I & V2-13_IGLJ2*01”, the ECL multispot signal (ratio to blank; column not labelled) in assay [5] worked out at 2.5.

Turning to “Fab VH3-23_IGHD2-21*01>3_IGHJ6*01 H100E/S108P/Y113G Y110T & V2-13_IGLJ2*01”, the ECL multispot signal (ratio to blank; column not labelled) was determined as 3.5 in assay [6] and 2.3 in assay [5].

With “Fab VH3-23_IGHD3-10*01>3_IGHJ6*01 Y110R & O12_IGKJ1*01”, the ECL signal/blank ratio came out at 3 in [7], 3 in assay [8], 2.5 in assay [9] and 2.8 in assay [10].

In the case of “Fab VH3-23_IGHD3-10*01>3_IGHJ6*01 Y111R & O12_IGKJ1*01”, the ECL signal/blank ratio in assay [7] came to 3.2; in [8], 2.9; in [10], 3.

For the substance “Fab VH3-23_IGHD3-10*01>3_IGHJ6*01 Y112P & O12_IGKJ1*01”, the ECL signal/blank ratio in assay [11] turned out to be 1.1; in [12] it was 1; in [13], 0.9; in assay [14], 1.4; in assay [15] it was 0.8; in assay [16] it was 1.1. Also, the ECL signal/blank ratio in assay [17] stood at 1.1.

Consider “Fab VH5-51_IGHD5-18*01>3_IGHJ4*01 G100K/G104T (H:KT) & V3-4_IGLJ1*01 G95A”, for which the ECL signal in assay [18] is 999; in assay [19], 1090; in assay [20], 707.

Turning to “Fab VH5-51_IGHD5-18*01>3_IGHJ4*01 G100K/G104T (H:KT) & V3-4_IGLJ1*01 G97A”, the ECL signal turned out to be 1110 in [18]; 528 in assay [21]; 1030 in [19]; 660 in [20]; 642 in [22].

Take “Fab VH5-51_IGHD5-18*01>3_IGHJ4*01 G100K/G104T (H:KT) & V3-4_IGLJ1*01 L92A”: the values for the ECL signal in [19], in [20] and in assay [22] were 959, 693 and 695, respectively.

Take “Fab VH5-51_IGHD5-18*01>3_IGHJ4*01 G100K/G104T (H:KT) & V3-4_IGLJ1*01 M94A”: the results for the ECL signal in assay [18] and in assay [19] were 1150 and 1090, respectively.

For the substance “Fab VH5-51_IGHD5-18*01>3_IGHJ4*01 G100K/G104T (H:KT) & V3-4_IGLJ1*01 S96A”, the ECL signal came to 1120 in [18]; 684 in assay [21]; 927 in [19]; 715 in assay [20]; 678 in [22].

On to “Fab VH5-51_IGHD5-18*01>3_IGHJ4*01 G100K/G104T (H:KT) & V3-4_IGLJ1*01 S99A”, for which the ECL signal in assay [18] worked out at 909; in assay [19] it was 943.

As for “Fab VH5-51_IGHD5-18*01>3_IGHJ4*01 G100K/G104T (H:KT) & V3-4_IGLJ1*01 V91A”, in assay [19], the ECL signal came out at 1030.

Take “Fab VH5-51_IGHD5-18*01>3_IGHJ4*01 G100K/G104T (H:KT) & V3-4_IGLJ1*01 Y93A”: the ECL signal was determined as 1130 in [18] and 1050 in assay [19].

With “Fab VH5-51_IGHD5-18*01>3_IGHJ4*01 G100K/G104T W33A & V3-4_IGLJ1*01”, the ECL signal worked out at 788 in [23], 921 in [24] and 513 in assay [25].

Take “IgG of VH1-46_IGHD6-6*01_IGHJ1*01 S102A/S103P/S104F/H111F I51V/N52L/S54T/G56H (APFF VLTH) & L6_IGKJ1*01 S28N/S30D/S31H S52L/A55S (NDH LS) (antibody)”: in [3], the Notch1 luciferase reporter luminescence, T98G reporter cells + CHO-DLL4, 0.8 nM IgG, replicate 1 was found to be 4440; the Notch1 luciferase reporter luminescence, T98G reporter cells + CHO-DLL4, 0.8 nM IgG, replicate 2 was 4520; the Notch1 luciferase reporter luminescence, T98G reporter cells + CHO-DLL4, 0.8 nM IgG, replicate 3 worked out at 3900; the Notch1 luciferase reporter luminescence, T98G reporter cells + CHO-DLL4, 0.8 nM IgG, replicate 4 turned out to be 3980. In assay [3], the Notch1 luciferase reporter luminescence, T98G reporter cells + CHO-DLL4, 4 nM IgG, replicate 1 is 4260; the Notch1 luciferase reporter luminescence, T98G reporter cells + CHO-DLL4, 4 nM IgG, replicate 2 is 3860; the Notch1 luciferase reporter luminescence, T98G reporter cells + CHO-DLL4, 4 nM IgG, replicate 3 amounted to 3950; the Notch1 luciferase reporter luminescence, T98G reporter cells + CHO-DLL4, 4 nM IgG, replicate 4 amounted to 3760. For the same substance, in assay [3], the Notch1 luciferase reporter luminescence, T98G reporter cells + CHO-DLL4, 20 nM IgG, replicate 1 came to 1250; the Notch1 luciferase reporter luminescence, T98G reporter cells + CHO-DLL4, 20 nM IgG, replicate 2 came to 1270; the Notch1 luciferase reporter luminescence, T98G reporter cells + CHO-DLL4, 20 nM IgG, replicate 3 stood at 1170; the Notch1 luciferase reporter luminescence, T98G reporter cells + CHO-DLL4, 20 nM IgG, replicate 4 is 1190. Moreover, in [3], the Notch1 luciferase reporter luminescence, T98G reporter cells + CHO-DLL4, 100 nM IgG, replicate 1 was 757; the Notch1 luciferase reporter luminescence, T98G reporter cells + CHO-DLL4, 100 nM IgG, replicate 2 was found to be 807; the Notch1 luciferase reporter luminescence, T98G reporter cells + CHO-DLL4, 100 nM IgG, replicate 3 worked out at 678; the Notch1 luciferase reporter luminescence, T98G reporter cells + CHO-DLL4, 100 nM IgG, replicate 4 was determined as 688.
